Measurements: US20070015695A1 (NATIONAL JEWISH HEALTH, published 2007)

B1: extracellular domain of BCMA (residues 1 to 51 of SEQ ID NO:6), soluble monomer, cleaved from GST-BCMA (receptor)
chain: MLQMAGQCSQNEYFDSLLHACIPCQLRCSSNTPPLTCQRYCNASVTNSVKG
notes: Expressed as a GST fusion in pGEX4T-2 and cleaved from GST with thrombin; also called monomeric BCMA; monomeric BMCA
B2: mutant sTALL-1 with residues 217-224 of SEQ ID NO:2 (flap region) replaced by two glycines (ligand)
chain: AVQGPEETVTQDCLQLIADSETPTIQKGSYTFVPWLLSFKRGSALEEKENKILVKETGYFFIYGQVLYTDKTYAMGHLIQRKKGGSLVTLFRCIQNMPETLPNNSCYSAGIAKLEEGDELQLAIPRENAQISLDGDVTFFGALKLL
notes: Gel filtration gave trimer and monomer peaks and no cluster; Immobilised as 'mutant trimeric sTALL-1' in the BIAcore assay; also called truncated sTALL-1; sTALL-1 217-224; not shown: N-terminal His6 tag; the mutant was overexpressed and purified as the native sTALL-1 and detected with anti-His6 mAb; le
B3: eBCMA, extracellular domain of BCMA (residues 1-52 of SEQ ID NO:6) (receptor)
chain: MLQMAGQCSQNEYFDSLLHACIPCQLRCSSNTPPLTCQRYCNASVTNSVKGT
notes: Residues 5-43 are ordered in the model; Made as a GST fusion and cleaved with thrombin
B4: BCMA, entire, overexpressed on transfected 293 cells (receptor)
chain: MLQMAGQCSQNEYFDSLLHACIPCQLRCSSNTPPLTCQRYCNASVTNSVKGTNAILWTCLGLSLIISLAVFVLMFLLRKISSEPLKDEFKNTGSGLLGMANIDLEKSRTGDEIILPRGLEYTVEECTCEDCIKSKPKVDSDHCFPLPAMEEGATILVTTKTNDYCKSLPAALSATEIEKSISAR
notes: also called BCMA-transfected 293 cells; cells that overexpressed entire BCMA

Key:
[1] = target: T1, soluble TALL-1 (sTALL-1), amino acids 134-285 of human TALL-1, His6-tagged, wild type (human, UniProt Q9Y275 134-285); test: BIAcore SPR, sTALL-1 immobilised on CM-5 chip, monomeric BCMA (10-1000 nM) injected, Scatchard analysis of equilibrium binding
T1 construct: Expressed in E. coli; Monomers form trimers, and at pH 7.4 and above a virus-like cluster of 60 monomers (20 trimers); Immobilised as 'wild type multimeric sTALL-1' in the BIAcore assay; also called wild type sTALL-1; native sTALL-1; not shown: N-terminal His6 tag from vector pET14b
Description: (§1) The binding affinity of BCMA for the wild type versus mutant sTALL-1 was further determined using BIACore surface plasmon resonance. To obtain the true affinity of the receptor without the confounding effect of multivalent binding, the polyvalent TALL-1 proteins were immobilized in the instrument flow cells and the soluble monomeric BCMA was injected in the mobile phase. The KD of the interaction was calculated by Scatchard analysis of the equilibrium data (data not shown). Briefly, wild type multimeric sTALL-1 and mutant trimeric sTALL-1 were immobilized (11,000 and 3000 RU, respectively) in separate flow cells of a CM-5 BIAcore Biosenser chip using standard amine coupling reagents. Various concentrations (10-1000 nM) of monomeric BMCA were injected for one min at a flow rate of 20 μl/min in a buffer of 100 mMNaCl, 20 mM Tris-HCI pH8.0 and 0.005% P20 detergent and the binding kinetics recording. For base line calculations the same BMCA samples were injected in a control flow cell with no protein immobilized. Receptor binding kinetics were too rapid for accurate measurements of on rates and off rates, but equilibrium binding values (Rmax) were used to calculate the overall affinity of receptor binding by Scatchard analysis.

[2] = target: B4; test: flow cytometry on BCMA-transfected 293 cells, anti-His6 mAb detection
Description: (§2) First, BCMA-transfected 293 cells were incubated with control medium, wild type sTALL-1 in the control medium, and mutant sTALL-1 in the control medium. Cell staining was performed by sequential incubation (each 40 min) with anti-His₆ mAb and RPE-conjugated goat […] IgG in staining buffer. The fluorescence was measured by using a Becton Dickinson FACScan flow cytometer (Shu et al., 2000, supra) (data not shown).

[3] = target: B1; test: BIAcore SPR, mutant trimeric sTALL-1 immobilised on CM-5 chip, monomeric BCMA (10-1000 nM) injected, Scatchard analysis of equilibrium binding; mutant trimeric sTALL-1 (flap removed) immobilised, monomeric BCMA injected
Description: as §1

[4] = target: T1, soluble TALL-1 (sTALL-1), amino acids …; test: co-expression, gel filtration at 100 mM to 1 M NaCl and SDS gel analysis, ratio 1:1
Description: However, four lines of evidence support the present inventors' belief that the crystal structure described herein reflects the actual interactions of the complexes in solution and in vivo. First, co-expression of sTALL-1 with eBCMA or eBAFF-R generates the virus-like cluster in solution as judged by gel-filtration column and […] analysis at a ratio of 1:1 (sTALL-1: eBCMA or eBAFF-R). Different salt concentrations (from 100 mM to 1 M NaCl) produce the same elution profile, in which complexes of sTALL-1 with eBCMA or eBAFF-R elute at a void volume on superdex-200. Thus, binding between ligand and receptors is stable and insensitive to salt concentrations. Purified samples of the preformed complexes were subjected to crystallization trials. Crystals of both complexes have been obtained, however neither of them diffracted. The results further confirmed that the “flap” region of TALL-1 which is involved in clustering, is not part of the receptor binding site. […] Second, in the receptor soaked sTALL-1 crystals, all seven fully occupied receptors and one partial receptor have equivalent binding sites on sTALL-1 in the asymmetry unit, so the binding is highly specific. Third, eBCMA and eBAFF-R have a similar binding mode and occupy the same site on sTALL-1. […]

[5] = target: T1, soluble TALL-1 (sTALL-1), amino acids …; test: flow cytometry on BCMA-transfected 293 cells, anti-His6 mAb detection
Description: as §2

Binder: B1
Kd [1]: ~100 nM

Binder: B2
binding result [2]: binds
Kd [3]: ~100 nM

Binder: B3
binding result [4]: binds

Binder: B4
binding result [5]: binds
